Results on four molecules are retold here after patent publication US20250154235A1 (NEURIMMUNE, published 2025).

By EC50 is commonly meant the concentration at which the effect is half-maximal. A word on the Kd: it is the constant that tells how readily two partners part at equilibrium. In general, koff refers to a measure of how fast the partners let go of each other. A higher koff goes with fast dissociation. What is called kon is the second-order rate constant of association. Low values mean slow association, high ones fast association.

Assay [1] has as its target T1, TTR 15-mer peptide EEEFVEGIYKVEIDT (human, also: covalently bound to a membrane).
T1 peptide: EEEFVEGIYKVEIDT
Put plainly: pepscan membrane of 15-mer TTR peptides (peptides 15 and 16). The procedure: (§1) Additional peptides including selected mutations were also plotted on the membrane. The membrane was blocked in Roti blocking buffer overnight at 4° C., incubated first with the anti-TTR antibody diluted in blocking buffer for 2 h at RT, then with an HRP-coupled anti human IgG antibody for 45 min at RT (dilution 1/20000 in TBS). The reaction was developed with luminol and imaged by luminescence.

The target of assay [2] is T2, TTR 15-mer peptide GLTTEEEFVEGIYKV (human, also: covalently bound to a membrane).
T2 peptide: GLTTEEEFVEGIYKV
Described as above. The procedure:
as §1

In assay [3] the target is mouse TTR protein contained in wild-type mouse liver extract (mouse, UniProt P07309 21-147). The assay can be described thus: western blot, wild-type mouse liver extract 10 ug total protein. The procedure: FIGS. 4A-4D: Specificity for aggregated TTR on western blot. [0047] […] To prevent dissociation of the high molecular weight aggregates, the aggregated TTR sample was crosslinked with glutaraldehyde (1%, 5 min) prior to loading on the gel.
The binding specificity and selectivity of anti-TTR antibodies was evaluated by means of western blot, see FIG. 4A-4D. In brief, human wild-type TTR protein (300 ng) in native or misfolded-aggregated conformations, and wild-type mouse liver extract (10 μg total protein) were loaded on a SDS-PAGE gel and transferred onto a nitrocellulose membrane using a semi-dry transfer system. […] After 4 washes with PBS-T for 5 min at RT, the membrane was incubated with the appropriate secondary antibody (HRP-coupled; 1/10000 dilution in blocking buffer) for 1 h at RT. After 3 washes with PBS-T and a final one in PBS, the membrane was developed with luminol and the signal intensity quantified by measuring luminescence. Shortly before use, the misfolded-aggregated TTR sample was submitted to crosslinking with glutaraldehyde (1%, 5 min, 37° C.) to prevent the dissociation of TTR aggregates during the preparation process for SDS-PAGE. In contrast, the native TTR sample was not crosslinked before use, such that the TTR homotetramer (which is the native TTR conformation under physiological conditions) almost entirely dissociated into monomers and dimers.
(In general: Immunoblotting shows a protein as a band on a membrane.)

The target in assay [4] is T3, misfolded-aggregated human wild-type TTR (human, UniProt P02766 21-147). The assay can be described thus: direct ELISA, misfolded-aggregated human wild-type TTR coated at 10 ug/ml. The procedure:
(§2) The antibody capacity to bind TTR and/or misfolded, misassembled and/or aggregated forms of TTR was evaluated by means of direct ELISA assays at varying antibody concentrations. This allows to determinate for each antibody its half maximal effective concentration (EC50) in this assay, which is a commonly used proxy for the antibody binding affinity, see FIG. 2A-2C. […] Antibodies against TTR were diluted in PBS at 11 different concentrations ranging from 4 to 400 nM, and incubated in the ELISA plates overnight at 4° C. After 3 washes with PBS-T, ELISA plates were incubated with a HRP-coupled, human IgG-specific secondary antibody for 1 h at RT (1/4000 dilution). After 3 washes with PBS-T, the ELISA reactions were developed with TMB for exactly 10 min at RT and quantified by measuring the optical density at 450 nm (OD450 nm).
(§3) Subsequently, the antibody's EC50s were determined by fitting the data with a non-linear regression using the least square method in order to estimate the antibody binding affinity under these conditions.

The target in assay [5] is misfolded-aggregated recombinant V30M-TTR (human, UniProt P02766 21-147). Put plainly: direct ELISA, misfolded-aggregated recombinant V30M-TTR coated at 10 ug/ml. On the procedure:
as §2, §3
(In general: ELISA stands for enzyme-linked immunosorbent assay.)

Assay [6] concerns the target T3, misfolded-aggregated human wild-type TTR. The assay can be described thus: SPR (ProteOn XPR36), antibody captured by anti-human IgG-Fc, TTR in solution 3.2-316 nM, Langmuir 1:1 fit. The procedure:
(§4) SPR analysis was performed on a BioRad ProteOn XPR36 fitted with a GLM sensor chip. An anti-human antibody directed against the Fc gamma domain was covalently coupled to the detection surface and saturated with the antibody under investigation. […] The antibody-antigen association was analyzed during 180 s and the dissociation during 600 s. A Langmuir binding model (simple 1:1 association) was used to fit the data and derive the association (ka) and dissociation (kd) constants, and the affinity (KD).
(§5) An anti-human IgG-Fcγ antibody was covalently coated on the detection surfaces, and used to capture the human TTR-specific antibodies.

In another assay the target is native TTR-L55P (human, UniProt P02766 21-147). The assay is described as above. The procedure: as §4, §5
The next assay addresses native TTR-V30M (human, UniProt P02766 21-147). Described as above. On the procedure: as §4, §5
Assay [7] has as its target T4, bovine serum albumin (BSA) (bovine, UniProt P02769 25-607).
T4 construct: Control antigen in the ELISA
The assay can be described thus: direct ELISA, BSA coated at 10 ug/ml. The procedure:
as §2, §3

For assay [8], the target named is T5, TTR 15-mer peptide ADDTWEPFASGKTSE (human, also: covalently bound to a membrane).
T5 peptide: ADDTWEPFASGKTSE
The assay can be described thus: pepscan membrane of 15-mer TTR peptides (peptides 9, 10 and 11). The procedure: as §1

Assay [9] has as its target T6, TTR 15-mer peptide FRKAADDTWEPFASG (human, also: covalently bound to a membrane).
T6 peptide: FRKAADDTWEPFASG
The description is as above. The procedure: as §1

Assay [10] addresses T7, TTR 15-mer peptide WEPFASGKTSESGEL (human, also: covalently bound to a membrane).
T7 peptide: WEPFASGKTSESGEL
The assay is described as above. On the procedure:
as §1

Assay [11] addresses T8, TTR-E42G peptide sequence WGPFA (41-45) (human).
T8 construct: Present in a mutant 15-mer spot of the pepscan membrane
T8 peptide: WGPFA
The assay can be described thus: pepscan membrane, mutant peptide. On the procedure: as §1

In assay [12] the target is T4, bovine serum albumin (BSA). The assay can be described thus: dot blot on nitrocellulose, NI-301.mur35G11 10 nM, anti-mouse IgG2a-HRP detection. On the procedure:
FIGS. 6A-6C: Absence of binding to human plasma TTR on dot blot. [0051] […] [0052] Samples 1-6:150 ng of 1) aggregated wt-TTR, 2) native wt-TTR, 3) BSA, 4) native V30M-TTR, 5) native L55P-TTR and 6) native Y78F-TTR. [0053] Samples 7-18:2 μl of plasma collected from 7-10) controls (n=4), 11-14) asymptomatic mutation carriers (n=4) and 15-18) FAP patients (n=4).

Assay [13] deals with T9, TTR 15-mer peptide TSESGELHGLTTEEE (human, also: covalently bound to a membrane).
T9 peptide: TSESGELHGLTTEEE
Put plainly: pepscan membrane of 15-mer TTR peptides (peptides 13 and 14). On the procedure: as §1

Assay [14] concerns the target T10, TTR 15-mer peptide GELHGLTTEEEFVEG (human, also: covalently bound to a membrane).
T10 peptide: GELHGLTTEEEFVEG
The description is as above. On the procedure:
as §1

Ends that are not written are not given here.

T4 sequence (P02769 25-607 limits assumed): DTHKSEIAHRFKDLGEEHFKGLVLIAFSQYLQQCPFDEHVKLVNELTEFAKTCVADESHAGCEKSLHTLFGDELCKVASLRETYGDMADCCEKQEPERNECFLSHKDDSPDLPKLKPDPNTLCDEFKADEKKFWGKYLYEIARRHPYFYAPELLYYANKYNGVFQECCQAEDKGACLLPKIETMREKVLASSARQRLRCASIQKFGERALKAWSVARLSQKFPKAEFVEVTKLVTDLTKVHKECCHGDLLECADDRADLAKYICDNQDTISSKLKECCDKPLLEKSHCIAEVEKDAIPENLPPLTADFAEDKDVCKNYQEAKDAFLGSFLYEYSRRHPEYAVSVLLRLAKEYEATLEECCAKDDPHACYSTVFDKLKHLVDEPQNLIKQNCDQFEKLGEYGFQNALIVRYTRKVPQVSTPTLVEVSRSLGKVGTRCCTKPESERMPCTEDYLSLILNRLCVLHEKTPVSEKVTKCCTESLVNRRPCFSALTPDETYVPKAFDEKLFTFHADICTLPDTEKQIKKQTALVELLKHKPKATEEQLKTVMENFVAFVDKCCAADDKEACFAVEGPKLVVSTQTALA

B1: NI-301.59F1 (antibody, V domains shown)
VH: EVQLVESGGGLVQPGGSLRLSCVASGFTFSNYWMSWVRQAPGKGLEWVANINQDSEKYYVDSVKGRFAISRDNSKNSLYLQMNSLRVEDTGVYYCARDRYCSGGRCSRGNNWFDPWGQGTLVTVSS
VL: not shown
In the case of B1, the binding result in assay [1] was “binds”; in assay [2], “binds”; in [3], “no binding (tested: 50 nM)”; in assay [7], “no binding (tested: up to 400 nM)”. Also, the EC50 in assay [4] was 3 nM; in [5] it was 15.5 nM. Further, the Kd in assay [6] turned out to be 3.5 nM; with native TTR-L55P, 3.1 nM; in the assay with native TTR-V30M, 16 nM. Further, the koff is 0.00034 s⁻¹ in assay [6], 0.00015 s⁻¹ with native TTR-L55P and 0.00022 s⁻¹ with native TTR-V30M. For the same molecule, the results for the kon (in assay [6]; with native TTR-L55P; with native TTR-V30M) were 97000 M⁻¹ s⁻¹, 51000 M⁻¹ s⁻¹ and 13000 M⁻¹ s⁻¹, respectively.

B2: NI-301.37F1 (antibody, V domains shown)
VH: QVQLQESGPGLVKPSETLSLTCSVSGGSIISRSSYWGWIRQPPGKGLEWIGGIYHSGNTYDNPSLKSRLTMSVDTSKNQFSLNLRSVTAADTAVYYCARIVPGGDAFDIWGQGTMVTVSS
VL: DIQMTQSPSSLSASVGDRVTIACRASQSVGTYLNWYQQKRGKAPKLLIFAASSLQSGVPSRFSGSGSGTDFTLTISSLQPEDFATYYCQQSYSSPPTFGQGTKVEIK
For the molecule B2, the binding result is “binds” in assay [8]; “binds” in [9]; “binds” in assay [10]; “no binding (tested: 50 nM)” in assay [3]; “no binding (tested: 50 nM)” in assay [11]; “no binding (tested: up to 400 nM)” in assay [7].

B3: mouse chimeric antibody NI-301.mur35G11 (antibody, V domains shown)
VH: EVQLVESGGGLVQPGGSLRLSCVASGFTFSSYAMSWVRQVPGKGLEWVSSISGSGDTTKYTDSVKGRFTISRDNSKNTVFLQMSSLRAEDTALYYCVKDGSGRIDPFALWGQGTMVTVSS
VL: EIVMTQSPLSLPVTLGQPASISCRSSRSLVYSDGNIYLNWFQQRPGQSPRRLIYKVSNRDSGVPDRFSGSGSDTDFTLRISRVEAEDVGVYYCMQGTHWPRTFGQGTKVEIK
notes: detected with anti-mouse IgG2a secondary antibody; also called murine chimeric anti-TTR antibody
For the molecule B3, the binding result in assay [12] is listed as “no binding (tested: 10 nM)”.

B4: NI-301.35G11 (antibody, V domains shown)
VH: B3 VH
VL: B3 VL
notes: also called NI.35G11
As to B4, the binding result in assay [3] was “no binding (tested: 50 nM)”; in [7] it was “no binding (tested: up to 400 nM)”; in assay [13], “binds”; in assay [14], “binds”.
